From article PMC10215022 (mAbs, 2023) come the findings set out here.

For the experiment, the target named is SARS-CoV-2 Delta (B.1.617.2) spike protein RBD, His-tagged (SARS-CoV-2 Delta (B.1.617.2), UniProt P0DTC2). The experiment is described as follows: SPR.

B1: casirivimab (REGN10933) (antibody, V domains shown)
VH: QVQLVESGGGLVKPGGSLRLSCAASGFTFSDYYMSWIRQAPGKGLEWVSYITYSGSTIYYADSVKGRFTISRDNAKSSLYLQMNSLRAEDTAVYYCARDRGTTMVPFDYWGQGTLVTVSS
VL: DIQMTQSPSSLSASVGDRVTITCQASQDITNYLNWYQQKPGKAPKLLIYAASNLETGVPSRFSGSGSGTDFTFTISGLQPEDIATYYCQQYDNLPLTFGGGTKVEIK
In turn, B1 gave a Kd of 0.07 nM, a koff of 0.0002 s⁻¹ and an association rate constant (kon) of 2.9e+06 M⁻¹ s⁻¹.

B2: imdevimab (REGN10987) (antibody, V domains shown)
VH: QVQLVESGGGVVQPGRSLRLSCAASGFTFSNYAMYWVRQAPGKGLEWVAVISYDGSNKYYADSVKGRFTISRDNSKNTLYLQMNSLRTEDTAVYYCASGSDYGDYLLVYWGQGTLVTVSS
VL: QSALTQPASVSGSPGQSITISCTGTSSDVGGYNYVSWYQQHPGKAPKLMIYDVSKRPSGVSNRFSGSKSGNTASLTISGLQSEDEADYYCNSLTSISTWVFGGGTKLTVL
B2 had a Kd of 0.11 nM, a koff of 0.00028 s⁻¹ and a kon of 2.6e+06 M⁻¹ s⁻¹.
